Measurements taken from the supplement of paper PMC9170038.

System: K4 kissing-loop RNA reporter
Assay: apparent KD of K4 kissing-loop reporter; higher = weaker reporter binding
Details: Eterna round: R107
Description: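 RNA-MaP round R107: designed RNA switches with theophylline, tryptophan, arginine or FMN aptamers are transcribed on-chip within common flanks. They are titrated with a labelled K4 kissing-loop RNA reporter in RNA-MaP buffer (100 mM Tris pH 7.5, 80 mM KCl, 4 mM MgCl2), without ligand or with the indicated ligand. Median apparent KD per design.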

[1] = input ligand: theophylline 20 uM
[2] = input ligand: tryptophan 2.4 mM
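Also: bound reporter read as fluorescence of individual clusters on recovered sequencing chips by microscopy, with normalized cluster intensities fitted with a binding model.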

Row | Sequence | apparent KD of K4 kissing-loop reporter (input ligand: FMN 200 uM) [nM] | apparent KD of K4 kissing-loop reporter (input ligand: arginine 13.2 mM) [nM] | apparent KD of K4 kissing-loop reporter (input ligand: none) [nM] | apparent KD of K4 kissing-loop reporter [1] [nM] | apparent KD of K4 kissing-loop reporter [2] [nM]
1 | UGAGUUAGACAAAAGUCUAGCUCUGGUGAAGGAGCGUCCGAAAGGACAGGUAGGUCGCACCACCUGAGUGAUGUUCAGAAUCCUU [KL-SSArg-A22] | 670 | 506 | 789 | 762 | 468
2 | UGAUACCAGACGGCCGCCACUCCCGUAAGUCAAAGACUUACGAAGAAGGUUUUUUAGUGAUGUUGGAGGACCGGGUCUGGUAUCU [FiskerMod 19 - Jieux - Exclusion - Tryptophan B] | 258 | 188 | 210 | 302 | 1100
3 | UGAUACCAGACUGAUACCAGCCACAGAGUCAAAGACUCUGAAAAGGAAACCAGUGAUGUUGGCCCUUGGCAGCAGUCUGGUAUCU [TheoBX 15 #SwitchBubble #StaticStem] | 191 | 176 | 171 | 152 | 164
4 | UGAUACCAGACUGAUACCAGCCAGUGAUGUUGGCUAAGCCGAAGAGGUGUCAUAGACACCGGCCCUUGGCAGCAGUCUGGUAUCU [#07 K4 Theophylline B Exclusion] | 120 | 110 | 120 | 108 | 117
5 | UGAUAGGACAGAAGGAGCGGAAGUGAUGUUUCCAAAAGGUAAAGGUGUCAAAAGACACCCUUCCAGGUAGGUCGCUGUCCUAUCU [ArgBX 12 #Palindromic #SwitchBubble #StaticStem] | 119 | 124 | 113 | 126 | 103
6 | UGAUAGGACAGAAGGAGCGGUAGUGAUGUUACCAAAAGAAUAAGGUGUCAAAAGACACCCUACCAGGUAGGUCGCUGUCCUAUCU | 170 | 237 | 189 | 220 | 179
7 | UGAUAGGACAGAAGGAGCGGUAGUGAUGUUGCCAAAAGGGUAAGGUGUCAAAAGACACCCUGCCAGGUAGGUCGCUGUCCUAUCU | 99.7 | 93.8 | 98.5 | 96.6 | 81.9
8 | UGAUAGGACAGAAGGAGCGGUAGUGAUGUUGCCAAAAGGUUAAGGUGUCAAAAGACACCCUACCAGGUAGGUCGCUGUCCUAUCU | 188 | 207 | 193 | 193 | 179
9 | UGCAUGUGAAACAUGUAGGUGCUAGGUGAAGGAGCGAUCGAAAGAUCAGGUAGGUCGCACCUUCCUGAGUGAUGUUCAGGUAAUA [KL-SSArg-A2] | 60.3 | 31.7 | 47.7 | 55.2 | 46
10 | UGCGGUAGUGAUGUUACCUCAUUAUACUAGCGAGGACCGGUACGGCCGCCACUCGACUUCCUCCACGCCUAGGCCUCUACGUUCA [theeternabot_sameState_KL_Trp_A_36] | 136 | 122 | 137 | 127 | 98.2
11 | UGGACGAUAUACGAUAAGUAUAUCUGGGAUACCAGUGACGAAAGUCACCCUUGGCAGCUCAACUGCCAGUGAUGUUGGUAGUCCA [#17 K4 Theophylline A Same State] | 192 | 153 | 135 | 182 | 126
12 | UGGACUAGUGUGAGUGAUGUUCACUUCGAUACCAGCAGAGCGAUCUGCCCUUGGCAGCGAGUUAACUGCCGAAAGGCAAGGUCCA [Theo B SS t9a] | 457 | 478 | 477 | 457 | 382
13 | UGGAUAUAGUGAUGUUAUAUAGAGAGUGAUACCAGUUUAGAGAAGAACCCUUGGCAGCAUAGAGAAGUAUCAUUAGAGAAGAAUG [ExTheophyl.Ap] | 220 | 208 | 233 | 240 | 180
14 | UGGCGGCAAGGGUUAUUGGAAAGUAUUCGACGAGGACCGGUACGGCCGCCACUCGAACACCAGUGAUGUUGGUCUGGCUUAAGCC [Exclusion Tryptophan A GF 21] | 276 | 245 | 285 | 275 | 279
15 | UGGGAUGGGCGAGGAUAUGGUGAUGUUUGGGUUGUUAGUGAUGUUGGUGAUGCUGGUGGUGUUUGUCCAGAAGGCGCGGUUUUUU [Bdazzled 3] | 154 | 64.1 | 119 | 132 | 109
16 | UGGGUGUAGUGAUGUUAUAUAGAGAGUGAUACCAGCGUAGAGAGAUGCCCUUGGCAGCAUAGAAGAGUAUCAUUGGAGGAGGAGG [ExTheophyl.Az] | 689 | 743 | 883 | 730 | 514

Row | Sequence | apparent KD of K4 kissing-loop reporter (input ligand: FMN 200 uM) [nM] | apparent KD of K4 kissing-loop reporter (input ligand: arginine 13.2 mM) [nM] | apparent KD of K4 kissing-loop reporter (input ligand: none) [nM] | apparent KD of K4 kissing-loop reporter [1] [nM] | apparent KD of K4 kissing-loop reporter [2] [nM]
17 | UGGGUGUAGUGAUGUUAUAUAGAGAGUGAUACCAGUUUAGAGAAGAACCCUUGGCAGCAUAGAAGAGUAUCAUUGGAGGAGGAGG [ExTheophyl.Av] | 361 | 413 | 336 | 268 | 289
18 | UGGUAUAGUGAUGUUAUACCACUACCAGAUACCAGUGUAACAUUACGCCCUUGGCAGCUGAUCAGGGAACAUAUGGAGACAUAUG [Theo A Mod astro A#6] | 318 | 261 | 285 | 267 | 292
19 | UGUACCGAGUCAGGAUAUCAACGACUGACAAAGUCGGUCGAAUAUCCAGUGAUGUUGGAAAAUAACUGAGAAGGGACUUGGUACU [FmnBS 13 #SwitchBubble #StaticStem] | 194 | 629 | 1080 | 710 | 903
20 | UGUACCGAGUCAGGAUAUCAUAAUAAUGCAGUGAUGUUGCAAUAACGACUGACAAAGUCGGUCGAUUGAGAAGGGACUUGGUACU [FmnBS 6 #SwitchBubble #StaticStem] | 127 | 118 | 129 | 110 | 126
21 | UGUACCGAGUCAGGAUAUGGCGUCGAAAGACGAAACCAGUGAUGUUGGAAAAUCUGCGAAAGCAGUCCAGAAGGGACUUGGUACU [FmnBS 24 #SwitchBubble #StaticStem #DoubleMagnetSystem] | 193 | 236 | 302 | 227 | 226
22 | UGUAUGGACUGAAGGAGCGCUAGGUAUGUGAGUGAUGUUCAUAUAAAUGUAUAAAGGGUUUGGCAGGUAGGUCGCAGUCCAUACU [KL-SSArg B6] | 213 | 122 | 227 | 154 | 188
23 | UGUAUGUGAUUUGAUACCAGACCAGCUGGUGGUAUAUGAGUGAUGUUCAUGUUGGUUUGGGUCCCUUGGCAGCAAAUCGCAUACU [KL-SSTheoB10] | 271 | 183 | 217 | 213 | 212
24 | UGUAUGUGAUUUGAUACCAGACCAGGUGGAGGAAUCUGAGUGAUGUUCAGGUAGGUUCUGGUCCCUUGGCAGCAAAUCGCAUACU [KL-SSTheoB19] | 166 | 133 | 168 | 150 | 160
25 | UGUCAUGGAAACAUGAACGUUGAUGUUCGACGAGGACCGGUACGGCCGCCACUCGAGUAAUAGUCAGUGAUGUUGACUAGUCUAA [KL-SSTryp-A form1] | 76.7 | 107 | 95 | 112 | 75.7
26 | UGUCAUUGGUCGGCCGCCACUAGAAGGUCAAAGACCAAAGAGUGAUGUUCUUAGACGAAAGUCACUAGGACCGGGACCGAUGACU [TrypBS 7 #SwitchBubble #K4Middle] | 931 | 641 | 971 | 746 | 200
27 | UGUCAUUGGUCGGCCGCCACUAGACGGACAUAAAGUCUGUCAUAAAGAGUGAUGUUCUUAAAUAAUAGGACCGGGACCGAUGACU [TrypBS 29 #SwitchBubble #StaticStem] | 440 | 382 | 872 | 611 | 218
28 | UGUCAUUGGUCGGCCGCCACUCCAUAAUGAGUGAUGUUCUAAAAGACGGAUCGAAAGAUCUGUCGGAGGACCGGGACCGAUGACU [FiskerMod 5 - Jieux - Same State - Tryptophan B] | 566 | 456 | 680 | 799 | 267
29 | UGUCAUUGGUCUGAUACCAGCUGAUCGGAAACGAUCUUGCUGGAGUGAUGUUCCAAGUAAAGCCCUUGGCAGCAGACCGAUGACU [TheoBS 9 #SwitchBubble #StaticStem] | 183 | 53.8 | 70.6 | 107 | 144
30 | UGUCAUUGGUCUGAUACCAGCUGAUCGGAAACGAUCUUGCUGGAGUGAUGUUCCAGGAAAAGCCCUUGGCAGCAGACCGAUGACU [TheoBS 10 #SwitchBubble #StaticStem] | 1320 | 445 | 1210 | 1100 | 1220
31 | UGUCAUUGGUCUGAUACCAGUUGAUAAACUGGAGUGAUGUUCCAAGACGAGAAACUCGACAACCCUUGGCAGCAGACCGAUGACU [TheoBS 16 #SwitchBubble 13 #StaticStem] | 440 | 295 | 374 | 772 | 430
